Experimental data taken from patent publication US7741124B2, “Detection procedures for fibrinogen and/or fibrinogen derivatives” (priority 2003, dated 2010).

Tested on: vancomycin
Test: Vancomycin-reactivity with fibrinogen split products (t-PA incubated plasma) or BrCN-cleaved fibrinogen
Assay type: biochemical
Details: 50 μl 1000 IU/ml t-PA
Method: 25 μl P-Pool were incubated with 25 μl 0 mM or 15 mM CT in PBS for 60 min (RT). Then 50 μl 1000 IU/ml t-PA, 0.1% Triton X 100® in PBS were added. […] In addition, 10 mg/ml BrCN-cleaved fibrinogen in 6% BSA-PBS or in pooled serum were assayed in the FIATA.

B1: t-PA: t-PA, 1000 IU/ml in PBS, 0.1% Triton X 100 (protein, UniProt P00750 36-562, looked up)
Tissue-type plasminogen …: SYQVICRDEKTQMIYQQHQSWLRPVLRSNRVEYCWCNSGRAQCHSVPVKSCSEPRCFNGGTCQQALYFSDFVCQCPEGFAGKCCEIDTRATCYEDQGISYRGTWSTAESGAECTNWNSSALAQKPYSGRRPDAIRLGLGNHNYCRNPDRDSKPWCYVFKAGKYSSEFCSTPACSEGNSDCYFGNGSAYRGTHSLTESGASCLPWNSMILIGKVYTAQNPSAQALGLGKHNYCRNPDGDAKPWCHVLKNRRLTWEYCDVPSCSTCGLRQYSQPQFRIKGGLFADIASHPWQAAIFAKHRRSPGERFLCGGILISSCWILSAAHCFQERFPPHHLTVILGRTYRVVPGEEEQKFEVEKYIVHKEFDDDTYDNDIALLQLKSDSSRCAQESSVVRTVCLPPADLQLPDWTECELSGYGKHEALSPFYSERLKEAHVRLYPSSRCTSQHLLNRTVTDNMLCAGDTRSGGPQANLHDACQGDSGGPLVCLNDGRMTLVGIISWGLGCGQKDVPGVYTKVTNYLDWIRDNMRP
15 mM CT-oxidized plasma
  time for 50% loss of vancomycin reactivity: about 1 h
25 μl 15 mM CT-oxidized citrated plasma
  incubation time for complete loss of vancomycin reactivity: 3 h
Unoxidized plasma
  time for 50% loss of vancomycin reactivity: 6 h
